Eight molecules from patent US20180015177A1 (Genentech, published 2018) can be followed below.

Positions count from the first letter of the chain named. Several values for one entry are separate records, joined by “and”; a condition that tells them apart may be missing. Identical values can stand only once.

The target in experiment [1] is human Ly6E, N-terminal gD-tagged, stably expressed on PC3 cells (human) (UniProt Q16553). Nature of the experiment: Scatchard analysis on PC3 cells expressing gD-tagged human Ly6E (binding to the gD tag).
Experiment [2] addresses Cynomolgus monkey Ly6E, N-terminal gD-tagged, stably expressed on PC3 cells (cynomolgus monkey). The experiment in a line: Scatchard analysis on PC3 cells expressing gD-tagged cyno Ly6E (binding to the gD tag).
Experiment [3] addresses T1, Cynomolgus monkey Ly6E, N-terminal gD-tagged, stably expressed on PC3 cells (cynomolgus monkey, UniProt Q16553 21-101 (human entry)).
T1 construct: also called cyno Ly6E; not shown: N-terminal gD tag of the retroviral vector
T1 chain: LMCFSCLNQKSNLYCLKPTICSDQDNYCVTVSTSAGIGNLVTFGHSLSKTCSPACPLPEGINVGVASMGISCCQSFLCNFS
The experiment in a line: Scatchard analysis (125I antibody) on PC3 cells expressing gD-tagged cyno Ly6E. On the procedure: (§1) A scatchard analysis was performed to determine affinity and binding sites per cell for the antibodies. Hu.9B12v12 antibody was iodinated several times using the Iodogen method. […] Competition reaction mixtures of 50 μL containing a fixed concentration of iodinated antibody and decreasing concentrations of unlabeled antibody were placed into 96-well plates. The PC3 cells stably transduced with retrovirus to express either recombinant human or Cynomolgus monkey gD tagged Ly6E were detached from flasks using Sigma Cell Dissociation Solution and were washed with binding buffer (DMEM with 2% FBS, 50 mM HEPES, pH 7.2, and 0.1% sodium azide). The washed cells were added at an approximate density of 200,000 cells in 0.2 mL of binding buffer to the 96-well plates containing the 50-μL competition reaction mixtures. […] The filters were counted on a Wallac Wizard 1470 gamma counter (PerkinElmer Life and Analytical Sciences; Wellesley, Mass.). The binding data were evaluated using New Ligand software (Genentech), which uses the fitting algorithm of Munson and Rodbard (1980) to determine the binding affinity of the antibody.

Experiment [4] concerns the target T2, Hu Ly6E (immobilized on CM5 chip for SPR) (human, UniProt Q16553 21-101).
T2 construct: also called human Ly6E
T2 sequence: T1 chain with T33A, L57I, I61V
Nature of the experiment: SPR (Biacore T100), Hu Ly6E immobilized, IgG injected, single cycle kinetics, apparent KD. As to the method:
SPR Affinity Determination—Affinity determinations were performed by surface plasmon resonance using single cycle kinetics on a BIAcore™-T100. Hu Ly6E was immobilized via EDC/NHS chemistry according to supplier's instructions (˜20 response units (RU)) on a CM5 chip. For kinetic measurement, three-fold serial dilution of anti-Ly6E IgG (5 to 405 nM) in PBST were injected with 200 s for association & 300 s for dissociation at a flow rate of 30 ul/min at 25° C. Binding response was corrected by subtracting both the RU from a blank flow cell and from buffer run on the same flow cell. A 1:1 Languir model of simultaneous fitting of kₒₙ and koff was used to measure the apparent KD.
On the technique in general: SPR reads the build-up and loss of mass on a sensor chip optically.

The target in experiment [5] is T1, Cynomolgus monkey Ly6E, N-terminal …. Nature of the experiment: cell-based Ly6E competitive binding assay, cyno Ly6E; competitor mouse 9B12.
The target of experiment [6] is T3, human Ly6E, N-terminal gD-tagged, stably expressed on PC3 cells (human, UniProt Q16553 21-101).
T3 construct: GPI-linked protein on cells; also called hu Ly6E; human Ly6E transfected PC3 cells; not shown: N-terminal gD tag of the retroviral vector
T3 sequence: T1 chain with T33A, L57I, I61V
Nature of the experiment: cell-based competitive binding on human Ly6E PC3 cells; competitor mouse 9B12. As to the method:
(§2) Cell-based Ly6E competitive binding assay—Cultured human Ly6E transfected PC3 cells were harvested with 5 mM EDTA containing PBS. Cells were washed with PBS and added onto a 384-well high binding plate (Meso Scale Discovery Technology (MSD); Gaithersburg, Md.). The plate was kept at room temperature for 1 hr to allow cells to adhere to the plate as described (See Lu, Y., Wong, W. L. & Meng, Y. G. A high throughput electrochemiluminescent cell-binding assay for therapeutic anti-CD20 antibody selection. Journal of Immunological Methods 314, 74-79 (2006)). The plate with cells was blocked with fetal bovine serum containing PBS for 1 hr and then cooled on ice. Serially diluted antibody variant samples were mixed with equal volume of fixed concentration of mouse 9B12 Ab. The mixtures were added onto the plates and incubated at 4° C. with gentle shaking for 1 hr.
(§3) The plate was then washed with cold PBS and an anti-mouse IgG Fc specific Ab (Jackson ImmunoReserach; West Grove, Pa.) labeled with sulfo-ruthenium tag was added to the plate as the detection reagent. The plate was incubated at 4° C. with gentle shaking for 1 hr. After incubation the plate was washed again, and MSD read buffer (MSD; Gaithersburg, Md.) was added onto the wells. The plate was read with a MSD SectorÒ imager 6000. The data was graphed and analyzed using KaleidaGraph software (Synergy Software; Reading, Pa.) to determine IC₅₀ values.

Experiment [7] concerns the target T3, human Ly6E, N-terminal gD-tagged, …. Nature of the experiment: cell-based Ly6E competitive binding assay, human Ly6E; competitor mouse 9B12. On the procedure: as §2
The plate was then washed with cold PBS and an anti-mouse IgG Fc specific Ab (Jackson ImmunoReserach; West Grove, Pa.) labeled with sulfo-ruthenium tag was added to the plate as the detection reagent. […] After incubation the plate was washed again, and MSD read buffer (MSD; Gaithersburg, Md.) was added onto the wells. The plate was read with a MSD SectorÒ imager 6000. The data was graphed and analyzed using KaleidaGraph software (Synergy Software; Reading, Pa.) to determine IC₅₀ values.

Experiment [8] has as its target T1, Cynomolgus monkey Ly6E, N-terminal …. Nature of the experiment: Scatchard analysis on PC3 cells expressing cyno Ly6E. On the procedure:
as §1

For experiment [9], the target named is T3, human Ly6E, N-terminal gD-tagged, …. Nature of the experiment: Scatchard analysis (125I antibody) on PC3 cells expressing gD-tagged human Ly6E. As to the method: as §1
Experiment [10] has the same target. The experiment in a line: Scatchard analysis on PC3 cells expressing human Ly6E. On the procedure: as §1
The target is the same in experiment [11]. The experiment in a line: cell-based Ly6E competitive binding assay on human Ly6E PC3 cells; competitor mouse 9B12. As to the method:
as §2, §3

In [1], anti-gD mAb (antibody) displayed a Kd of 1.1 nM and a Sites/Cell of 13000 sites/cell. In [2], this molecule had a Kd of 2 nM and a Sites/Cell of 53000 sites/cell.

B1: hu9B12.v12 (antibody, V domains shown)
VH: EVQLVESGPALVKPTQTLTLTCTVSGFSLTGYSVNWIRQPPGKALEWLGMIWGDGSTDYNSALKSRLTISKDTSKNQVVLTMTNMDPVDTATYYCARDYYFNYASWFAYWGQGTLVTVSS
VL: DIQMTQSPSSLSASVGDRVTITCSASQGISNYLNWYQQKPGKTVKLLIYYTSNLHSGVPSRFSGSGSGTDYTLTISSLQPEDFATYYCQQYSELPWTFGQGTKVEIK
notes: Expressed and tested as IgG; Iodinated (125I) tracer plus unlabeled antibody in the Scatchard analysis; also called humanized anti-Ly6E antibody
Turning to B1, the Kd in experiment [3] was 7.9 nM; in [4], 7 nM; in experiment [5] it was 16 to 40 nM; in [7], 15 to 19 nM; in experiment [8], 14 nM; in [9], 4 nM. Also, the Kd in [10] was found to be 4 nM. The IC50 in [6] is 15 nM and 16 nM.

B2: humanized 9B12 variant v8 (antibody, V domains shown)
VH: EVQLVESGGGLVQPGGSLRLSCAASGFSLTGYSVNWVRQAPGKGLEWVGMIWGDGSTDYNSALKSRFTISRDNSKNTLYLQMNSLRAEDTAVYYCARDYYFNYASWFAYWGQGTLVTVSS
VL: B1 VL with Y71F
notes: IgG. k1 graft 43+44 / VH3 graft; Residue change derived
As for B2, in [11], the binding result is given as “no binding”.

B3: humanized 9B12 variant v6 (antibody, V domains shown)
VH: B1 VH with V24F
VL: B1 VL with Y71F
notes: IgG. k1 graft 43+44 / VH2 graft + 49; Residue changes derived
On to B3, for which, in [11], the binding result is recorded as “no binding”.

B4: humanized 9B12 variant v11 (antibody, V domains shown)
VH: B1 VH with V24F
VL: B1 VL
notes: IgG. k1 graft 43+44+71 / VH2 graft + 49; Residue change derived
Consider B4, for which, in experiment [11], the binding result was “no binding”.

B5: humanized 9B12 variant v3 (antibody, V domains shown)
VH: B2 VH
VL: B1 VL with T43A, V44P, Y71F
notes: Light chain changes derived
With B5, the binding result in [11] is “no binding”.

B6: humanized 9B12 variant v13 (antibody, V domains shown)
VH: B2 VH
VL: B1 VL
notes: IgG. k1 graft 43+44+71 / VH3 graft
As for B6, the binding result in experiment [11] is recorded as “no binding”.

B7: chimeric 9B12 (antibody, V domains shown)
VH: QVQLKESGPGLVAPSQSLSLTCTVSGFSLTGYSVNWVRQPPGKGLEWLGMIWGDGSTDYNSALKSRLTISKDNSKSQVFLKMNSLQTDDTARYYCARDYYFNYASWFAYWGPGTLVTVSA
VL: DIQMTQTTSSLSASLGDRVTISCSASQGISNYLNWYQQKPDGTVKLLIYYTSNLHSGVPSRFSGSGSGTDYSLTISNLEPEDIATYYCQQYSELPWTFGGGTKVEIK
notes: Chimeric IgG with the mouse 9B12 variable domains; also called ch9B12; Ch 9B12
As to B7, the Kd in experiment [3] was 2.9 nM; in experiment [4], 6 nM; in experiment [5] it was 5 to 7 nM; in experiment [7] it was 3 to 6 nM; in experiment [8], 4 nM; in experiment [9], 2 nM. Moreover, in experiment [10], the Kd amounted to 4 nM. Besides, the IC50 in [6] was 3 nM and 6 nM and 5 nM.

For orientation: IC50 means the concentration that inhibits the measured activity by half.
